Reference: patent US20200140562A1 (Innovent, published 2020)

What was measured:
[1] = molecular target: T1, human OX40 on cells (CHO-hOX40, 293HEK-hOX40, Jurkat-hOX40, activated primary CD4+ T cells) (human, UniProt P43489 29-277); assay: flow cytometry, CHO-hOX40
T1 construct: whole, on cells; The cell type is told in each assay; also called CHO-OX40
T1 sequence (looked up): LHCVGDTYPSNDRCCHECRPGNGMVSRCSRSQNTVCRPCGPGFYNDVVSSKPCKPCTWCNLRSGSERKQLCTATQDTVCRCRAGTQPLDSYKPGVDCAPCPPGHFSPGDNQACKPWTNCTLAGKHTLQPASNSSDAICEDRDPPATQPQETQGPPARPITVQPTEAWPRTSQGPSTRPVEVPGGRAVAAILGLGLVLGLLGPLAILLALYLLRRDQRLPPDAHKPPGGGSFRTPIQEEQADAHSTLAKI

[2] = molecular target: T1, human OX40 on cells (CHO-hOX40, …); assay: flow cytometry, CHO-hOX40, 25 nM
[3] = molecular target: T1, human OX40 on cells (CHO-hOX40, …); assay: flow cytometry, CHO-hOX40, 100 nM
[4] = molecular target: T1, human OX40 on cells (CHO-hOX40, …); assay: flow cytometry, CHO-hOX40, 100 nM; remark: listed apart in the source
[5] = molecular target: T1, human OX40 on cells (CHO-hOX40, …); assay: flow cytometry, CHO-hOX40, 12.5 nM
[6] = molecular target: T1, human OX40 on cells (CHO-hOX40, …); assay: flow cytometry, CHO-hOX40, 12.5 nM; remark: listed apart in the source
[7] = molecular target: T1, human OX40 on cells (CHO-hOX40, …); assay: flow cytometry, CHO-hOX40, 6.25 nM
[8] = molecular target: T1, human OX40 on cells (CHO-hOX40, …); assay: flow cytometry, CHO-hOX40, 1.5625 nM
[9] = molecular target: T1, human OX40 on cells (CHO-hOX40, …); assay: flow cytometry, CHO-hOX40, 0.78125 nM
[10] = molecular target: T1, human OX40 on cells (CHO-hOX40, …); assay: flow cytometry, CHO-hOX40, 0.09765625 nM
[11] = molecular target: T1, human OX40 on cells (CHO-hOX40, …); assay: flow cytometry, CHO-hOX40, 0.048828125 nM
[12] = molecular target: T1, human OX40 on cells (CHO-hOX40, …); assay: flow cytometry, CHO-hOX40, 0.024414063 nM
[13] = molecular target: T1, human OX40 on cells (CHO-hOX40, …); assay: flow cytometry competition on CHO cells expressing human OX40; blocked ligand OX40L-mFc (60 ug/ml), detected with anti-murine Fc-FITC

EC50 [1]: 5.33 nM | MFI [2]: 2.8e+06 MFI | MFI [3]: 2.57e+06 MFI | MFI [4]: 2.51e+06 MFI | MFI [5]: 1.99e+06 MFI | MFI [6]: 1.11e+06 MFI | MFI [7]: 600000 MFI | MFI [8]: 554000 MFI | MFI [9]: 86000 MFI | MFI [10]: 35200 MFI | MFI [11]: 34000 MFI | MFI [12]: 7970 MFI | IC50 (read off the curve) [13]: ~20 nM
B1: OX40L (control reagent; recombinant OX40L, Acro Biosystems) (ligand, UniProt P23510 51-183, looked up)
chain: QVSHRYPRIQSIKVQFTEYKKEKGFILTSQKEDEIMKVQNNSVIINCDGFYLISLKGYFSQEVNISLHYQKDEEPLFQLKKVRSVNSLMVASLTYKDKVYLNVTTDNTSLDDFHVNGGELILIHQNPGEFCVL
notes: may be the same reagent as OX40L-hFc
